T1: Vascular endothelial growth factor (VEGF165), P15692
T1 chain: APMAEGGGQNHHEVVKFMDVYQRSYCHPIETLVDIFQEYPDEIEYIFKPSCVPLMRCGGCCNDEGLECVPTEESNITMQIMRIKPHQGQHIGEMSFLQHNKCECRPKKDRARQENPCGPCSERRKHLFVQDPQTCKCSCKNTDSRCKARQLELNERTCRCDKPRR


Target: T1, Vascular endothelial growth factor …
Assay: competition FP, tracer BODIPY-v114*ΔNT

Binder | Ki
VDNKFNKEMHNAYAIEIALLPNLNDQQFHAFIWSLIDD (modifications not checked) [Z-VEGF (1-38)] | > 100 µM
VDNKFNKEQHNARAIEAALDPNLNDQQFHAKIWSIIDD (modifications not checked) [α-VEGF-1] | > 100 µM

Source: patent publication US20150203555A1
